One may read the stoichiometry N as the number of molecules, sites or subunits per partner or assembly.

For the assay, the target named is SARS-CoV-2 Omicron-S (SARS-CoV-2) (UniProt P0DTC2). Briefly: cryo-EM structure.

In turn, “SARS-CoV-2 Omicron-S (from UniProt P0DTC2 340-527) (natural protein)” registered a stoichiometry N of 3.
